The assay deals with human insulin (disulfide-bonded heterodimer) (human) (UniProt P01308). In words: cell-based or functional assay.
human insulin (disulfide-bonded heterodimer) (human), sequence (P01308 90-110 limits assumed, chain 1 of 2): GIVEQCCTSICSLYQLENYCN
human insulin (disulfide-bonded heterodimer) (human), sequence (P01308 25-54 limits assumed, chain 2 of 2): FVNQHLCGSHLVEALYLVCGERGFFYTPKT

B1: ORP100S (fully monocysteinic human thioredoxin-1, reduced form) (enzyme)
chain: VKQIESKTAFQEALDAAGDKLVVVDFSATWCGPSKMIKPFFHSLSEKYSNVIFLEVDVDDSQDVASESEVKSMPTFQFFKKGQKVGEFSGANKEKLEATINELV
Take B1: the Relative % insulin reduction (ORP100S Ox 0 : Red 100) (% relative to maximum) worked out at 100, the Relative % insulin reduction (ORP100S mixture Ox 25 : Red 75) (% relative to maximum) is 72, the Relative % insulin reduction (ORP100S mixture Ox 50 : Red 50) (% relative to maximum) came out at 51 and the Relative % insulin reduction (ORP100S mixture Ox 75 : Red 25) (% relative to maximum) came out at 36. Besides, the maximum insulin heterodimer reaction with fully reduced material (RP-HPLC insulin reduction assay) was 45%.

B2: oxidized ORP100S treated with iodacetamide (IA) (enzyme)
chain: VKQIESKTAFQEALDAAGDKLVVVDFSATWCGPSKMIKPFFHSLSEKYSNVIFLEVDVDDSQDVASESEVKSMPTFQFFKKGQKVGEFSGANKEKLEATINELV
modifications: Cys32 oxidized / treated with iodoacetamide, as printed: 'oxidized ORP100S treated with iodacetamide (IA)'
Take B2: the Relative % insulin reduction (ORP100S Ox 100 : Red 0) (% relative to maximum) stood at 8.

The values are drawn from patent US20230071765A1, “COMPOSITIONS HAVING THIOREDOXIN ACTIVITY AND RELATED METHODS” (ORPRO THERAPEUTICS, INC., priority 2020, published 2023).
